This is an account of results in FireProtDB (doi:10.1021/bi027116n).

Several values for one entry are separate records, joined by “and”; a condition that tells them apart may be missing. Equal entries are not always repeated.

For this data set the following is noted: Aquifex aeolicus (strain VF5), reversible: no, whole UniProt chain shown; for denaturant midpoint (higher = more stable): 20 °C, GdnHCl.

B1: 2Fe-2S ferredoxin-5 wild type, P59799 (protein)
chain: MPKVIVANINAEFEGIENETIMQILYRNGIEIDSACGGHGQCTSCKVLIISGSENLYPAEFEEKDTLEENGMDPETERLSCQAKLNGKGDVVIYLP
Broadly, the Tm is the temperature at which the thermal transition is half complete. As to B1, the “denaturant midpoint (higher = more stable)” value is 3.2 M (pH 4, Absorbance, citric acid-NaH2PO4); 3.2 M (pH 4, Emission, citric acid-NaH2PO4); 6.7 M (pH 5, Absorbance, Unknown); 6.7 M (pH 5, CD, Unknown); 6.9 M (pH 5, Emission, Unknown); 7.5 M and 7.1 M (pH 10, Absorbance, Glycine-OH). In addition, the “denaturant midpoint (higher = more stable)” value runs as follows: (pH 10, CD, Glycine-OH) 7 M; (pH 10, CD, glycine-OH) 6.6 M and 6.3 M and 6.1 M; (pH 10, Emission, Glycine-OH) 7 M; (pH 10, Emission, glycine-OH) 6.5 M and 6.1 M; (pH 11, CD, NaHCO3-NaOH) 6.2 M; (pH 11, Emission, NaHCO3-NaOH) 6.2 M. Further, where the note is “pH 10, Thermal, Absorbance, Glycine-OH”, the melting temperature (Tm) stood at 116 °C.
